Results from article PMC7966797, “A cold shock protein promotes high-temperature microbial growth through binding to diverse RNA species”.

Assays:
CspL [1] = target: T1, CspL (Bacillus coagulans 2-6, UniProt A0A0C5C4D7 1-67); assay: BLI; BLI, streptavidin sensor with 5'-biotin oligo; 20 mM PBS pH 7.4, 100 mM NaCl, 0.1% BSA, 0.02% Tween 20; CspL 20 ug/ml; temperature not in the material; conditions: protein: recombinant, tags: His, label: 5'-biotin
CspL [2] = target: T1, CspL; assay: BLI; 2100, 210 nM CspL; binding lost at 21 nM; BLI, streptavidin sensor with 5'-biotin oligo; 20 mM PBS pH 7.4, 100 mM NaCl, 0.1% BSA, 0.02% Tween 20; CspL 20 ug/ml; temperature not in the material; conditions: protein: recombinant; tags: His; label: 5'-biotin

| Binder | binding result (CspL [1]) | binding result (CspL [1]; blunt) | other results |
| --- | --- | --- | --- |
| CCGCAGAGAACGACGAGAGC (ssDNA) [ssDNA gaaC] | binds | – | – |
| CCGCAGATCCAGACGAGAGC (ssDNA) [ssDNA random] | binds | – | – |
| dsDNA gaaC (dsDNA) DNA 1: CCGCAGAGAACGACGAGAGC DNA 2: GCTCTCGTCGTTCTCTGCGG | – | no binding | – |
| dsDNA random (dsDNA) DNA 1: CCGCAGATCCAGACGAGAGC DNA 2: GCTCTCGTCTGGATCTGCGG | – | no binding | – |
| GAGACCGGAATTCGAGCT (ssDNA) [18 nt ssDNA (ssDNA 5)] | – | – | binding result (CspL [2]): binds |
